pKi: −log10 of the molar value.
Legend:
[1] = target: whole intracellular region of rat PTPRZ (rat PTPRZ-ICR) (rat) (UniProt Q62656); assay: inhibition of PTPase catalytic activity
[2] = target: whole intracellular region of rat PTPRZ (rat PTPRZ-ICR) (rat) (UniProt Q62656); assay: native MS

whole intracellular region of rat PTPRZ (rat PTPRZ-ICR) (rat), sequence (Q62656 1699-2316): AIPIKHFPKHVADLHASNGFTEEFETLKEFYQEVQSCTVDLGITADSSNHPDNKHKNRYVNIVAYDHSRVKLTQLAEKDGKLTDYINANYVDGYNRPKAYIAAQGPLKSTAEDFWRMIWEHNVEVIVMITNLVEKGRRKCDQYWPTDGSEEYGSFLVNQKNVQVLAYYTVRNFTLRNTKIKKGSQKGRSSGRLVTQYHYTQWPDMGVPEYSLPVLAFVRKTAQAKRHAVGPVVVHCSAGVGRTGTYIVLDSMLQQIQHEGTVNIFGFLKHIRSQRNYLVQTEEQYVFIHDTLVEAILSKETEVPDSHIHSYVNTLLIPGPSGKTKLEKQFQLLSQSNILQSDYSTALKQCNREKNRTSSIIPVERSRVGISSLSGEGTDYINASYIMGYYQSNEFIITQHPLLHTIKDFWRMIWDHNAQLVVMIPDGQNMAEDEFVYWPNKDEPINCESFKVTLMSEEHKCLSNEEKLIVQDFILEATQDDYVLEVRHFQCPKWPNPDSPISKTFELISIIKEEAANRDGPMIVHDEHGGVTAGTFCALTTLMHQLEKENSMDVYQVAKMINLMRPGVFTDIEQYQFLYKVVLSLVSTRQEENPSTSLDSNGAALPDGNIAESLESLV
F2Pmp-GIT1_(550–556), non-hydrolyzable pTyr mimetic (F2Pmp)-containing substrate-mimetic inhibitor peptide, sequence (Q9Z272 whole entry, looked up, tested part not stated): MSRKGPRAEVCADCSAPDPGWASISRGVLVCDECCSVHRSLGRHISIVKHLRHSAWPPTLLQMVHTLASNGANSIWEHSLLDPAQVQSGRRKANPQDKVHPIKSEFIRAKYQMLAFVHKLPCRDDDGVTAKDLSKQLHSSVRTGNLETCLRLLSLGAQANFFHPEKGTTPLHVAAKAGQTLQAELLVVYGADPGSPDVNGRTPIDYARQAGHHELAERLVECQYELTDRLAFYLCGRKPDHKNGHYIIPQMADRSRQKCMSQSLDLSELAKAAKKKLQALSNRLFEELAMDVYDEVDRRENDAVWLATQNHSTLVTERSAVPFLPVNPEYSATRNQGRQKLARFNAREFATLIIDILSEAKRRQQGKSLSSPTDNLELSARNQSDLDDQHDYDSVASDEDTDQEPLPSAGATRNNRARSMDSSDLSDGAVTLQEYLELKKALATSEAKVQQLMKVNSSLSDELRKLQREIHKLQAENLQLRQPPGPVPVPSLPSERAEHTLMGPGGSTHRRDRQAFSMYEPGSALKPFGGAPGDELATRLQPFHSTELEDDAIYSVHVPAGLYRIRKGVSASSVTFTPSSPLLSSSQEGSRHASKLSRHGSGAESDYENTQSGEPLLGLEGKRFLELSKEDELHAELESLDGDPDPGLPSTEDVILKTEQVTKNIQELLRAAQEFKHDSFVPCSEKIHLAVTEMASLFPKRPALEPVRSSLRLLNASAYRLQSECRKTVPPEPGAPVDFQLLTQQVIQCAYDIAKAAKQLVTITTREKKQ

pKi [1]: 5.51
stoichiometry N [2]: 1
Substance: F2Pmp-GIT1_(550–556), non-hydrolyzable pTyr mimetic (F2Pmp)-containing substrate-mimetic inhibitor peptide (from UniProt Q9Z272 550-556)

From article doi:10.1101/636423
